Measurements: publication PMC10941548, “Tau induces inflammasome activation and microgliosis through acetylating NLRP3” (Clinical and Translational Medicine, 2024)

How the values were obtained:
[1] = target: T1, purified human WT full-length Tau protein (Tau441), His-tagged (human, UniProt P10636-8 1-441); experiment: co-IP; competition: TNB peptide (0, 25, 50, 100, 200 µM) and purified Tau441 added to LPS-pretreated BV-2 cells; loss of Tau in the anti-NLRP3 immunoprecipitate; settings: both partners purified
T1 construct: also called purified Tau441 protein; recombinant Tau441; source: E. coli ROSETTA 2(DE3)PLYSS, purified (Ni-NTA) by HUABIO
T1 sequence (P10636 other isoform, or with tags, fused parts or gaps): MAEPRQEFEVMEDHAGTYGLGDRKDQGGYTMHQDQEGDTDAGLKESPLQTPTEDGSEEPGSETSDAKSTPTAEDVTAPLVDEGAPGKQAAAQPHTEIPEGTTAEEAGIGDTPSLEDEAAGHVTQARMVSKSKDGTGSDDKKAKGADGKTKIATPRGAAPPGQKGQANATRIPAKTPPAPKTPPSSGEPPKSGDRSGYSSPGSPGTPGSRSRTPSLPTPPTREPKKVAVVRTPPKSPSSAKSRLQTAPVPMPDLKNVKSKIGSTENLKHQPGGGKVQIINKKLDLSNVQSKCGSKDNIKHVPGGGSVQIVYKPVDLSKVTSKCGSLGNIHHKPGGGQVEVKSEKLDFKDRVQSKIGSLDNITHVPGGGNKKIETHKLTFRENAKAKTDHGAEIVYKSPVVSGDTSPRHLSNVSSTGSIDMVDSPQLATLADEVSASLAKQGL

[2] = target: T1, purified human WT full-length Tau …; experiment: pull-down; Flag-NLRP3 (WT or mutant) immunoprecipitated from HEK-293T with anti-Flag on protein A/G agarose beads; incubated with 50 nM purified Tau441 and 1 mM acetyl CoA at 37°C for 2 h in 50 mM HEPES pH 8.0, 10 mM sodium butyrate, 1 mM DTT, 10% glycerol; blot with anti-Tau5 and anti-NLRP3; settings: both partners purified

Binder	binding result [1]	binding result [2]
LEDLEDVDLKKFKMHLEDYPP (stretch of NLRP3 around K21/K22/K24 in the PYD domain; 2574.89 Da; An FITC-labelled form (FITC-TNB) was used only for microscopy; also called peptide TNB; source: synthetic peptide (Bioyeargene Biosciences, Fmoc solid-phase, purity 95.93%)) [Tau–NLRP3-binding blocking (TNB) peptide]	binds	
Flag-mouse NLRP3 (GV362-EGFP-FLAG-mouse NLRP3), wild type (natural protein, UniProt Q8R4B8 1-1033, looked up, NOD-like receptor pyrin domain containing 3 (NLRP3), mouse, fusion with Flag; Plasmid from Genechem; also called GV362-EGFP-Flag-NLRP3; NLRP3-protein A/G agarose beads complexes; source: HEK-293T, transfected 48 h, immunoprecipitated with anti-Flag antibody on protein A/G agarose beads) MTSVRCKLAQYLEDLEDVDLKKFKMHLEDYPPEKGCIPVPRGQMEKADHLDLATLMIDFNGEEKAWAMAVWIFAAINRRDLWEKAKKDQPEWNDTCTSHSSMVCQEDSLEEEWMGLLGYLSRISICKKKKDYCKMYRRHVRSRFYSIKDRNARLGESVDLNSRYTQLQLVKEHPSKQEREHELLTIGRTKMRDSPMSSLKLELLFEPEDGHSEPVHTVVFQGAAGIGKTILARKIMLDWALGKLFKDKFDYLFFIHCREVSLRTPRSLADLIVSCWPDPNPPVCKILRKPSRILFLMDGFDELQGAFDEHIGEVCTDWQKAVRGDILLSSLIRKKLLPKASLLITTRPVALEKLQHLLDHPRHVEILGFSEAKRKEYFFKYFSNELQAREAFRLIQENEVLFTMCFIPLVCWIVCTGLKQQMETGKSLAQTSKTTTAVYVFFLSSLLQSRGGIEEHLFSDYLQGLCSLAADGIWNQKILFEECDLRKHGLQKTDVSAFLRMNVFQKEVDCERFYSFSHMTFQEFFAAMYYLLEEEAEGETVRKGPGGCSDLLNRDVKVLLENYGKFEKGYLIFVVRFLFGLVNQERTSYLEKKLSCKISQQVRLELLKWIEVKAKAKKLQWQPSQLELFYCLYEMQEEDFVQSAMDHFPKIEINLSTRMDHVVSSFCIKNCHRVKTLSLGFFHNSPKEEEEERRGGRPLDQVQCVFPDTHVACSSRLVNCCLTSSFCRGLFSSLSTNRSLTELDLSDNTLGDPGMRVLCEALQHPGCNIQRLWLGRCGLSHQCCFDISSVLSSSQKLVELDLSDNALGDFGIRLLCVGLKHLLCNLQKLWLVSCCLTSACCQDLALVLSSNHSLTRLYIGENALGDSGVQVLCEKMKDPQCNLQKLGLVNSGLTSICCSALTSVLKTNQNFTHLYLRSNALGDTGLRLLCEGLLHPDCKLQMLELDNCSLTSHSCWNLSTILTHNHSLRKLNLGNNDLGDLCVVTLCEVLKQQGCLLQSLQLGEMYLNRETKRALEALQEEKPELTIVFEISW		binds
